Source: IntAct's records for PubMed 23770679

B1: Microtubule protein alp7 (Schizosaccharomyces pombe (strain ATCC 38366 / 972)), Q9URY2 (parent)
chain: MSDIVSSSTDYSRRSPSSSSIGTNETDHTGFHEKRQGASSESLIPPAQRSSEESMPAPKLFPKLTSKPNPQLNLKDTLNKRVSDRLQALELNKSFDFSGTPRPMHPISHPLSQHKTPEFKHRKRNVESILTPKNPSLFSSSNAASQRGSLNTAPSNFAYSHSSSLQTSASSRPPVLSNGSFPRQTNTAPLNPPVHLKDNIRNSATPSTSQADIPTQYPINSTQKQQAKYEAEIEGYKAKLAGTYHEISVLQNTIVNVSGQLIAVNDQLQQLRSGKASTSPSTKDTNMRLVEGHNEETLALQRGKYTQEEVDKLIQERMEKVAEDLHAQYSAKHTQKINAFKANYARKYEATIQELQNQIGTAPNAPKISNSNWEEERRALKADNQTLQKQLEKAIQERQDMSDFLNNFKADMAKSDKLLMQQQSQQTGDLETLRLQLQALQEELRVEREERQQLIQMSEDLVIAMDQLNLEQKS
partner: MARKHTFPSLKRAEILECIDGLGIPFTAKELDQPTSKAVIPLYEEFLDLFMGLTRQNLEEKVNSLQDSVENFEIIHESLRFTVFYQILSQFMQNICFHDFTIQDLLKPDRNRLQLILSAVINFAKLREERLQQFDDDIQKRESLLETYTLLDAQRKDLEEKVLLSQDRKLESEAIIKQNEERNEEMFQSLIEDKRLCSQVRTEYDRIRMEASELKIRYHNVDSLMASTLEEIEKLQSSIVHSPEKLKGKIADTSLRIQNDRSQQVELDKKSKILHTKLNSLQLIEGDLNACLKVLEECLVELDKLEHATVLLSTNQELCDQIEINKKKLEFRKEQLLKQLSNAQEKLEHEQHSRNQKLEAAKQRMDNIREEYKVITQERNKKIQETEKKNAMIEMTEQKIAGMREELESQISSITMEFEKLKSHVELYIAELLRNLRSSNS
B2: Microtubule protein alp7 (Schizosaccharomyces pombe (strain ATCC 38366 / 972)), Q9URY2 (parent)
chain: B1 chain
partner: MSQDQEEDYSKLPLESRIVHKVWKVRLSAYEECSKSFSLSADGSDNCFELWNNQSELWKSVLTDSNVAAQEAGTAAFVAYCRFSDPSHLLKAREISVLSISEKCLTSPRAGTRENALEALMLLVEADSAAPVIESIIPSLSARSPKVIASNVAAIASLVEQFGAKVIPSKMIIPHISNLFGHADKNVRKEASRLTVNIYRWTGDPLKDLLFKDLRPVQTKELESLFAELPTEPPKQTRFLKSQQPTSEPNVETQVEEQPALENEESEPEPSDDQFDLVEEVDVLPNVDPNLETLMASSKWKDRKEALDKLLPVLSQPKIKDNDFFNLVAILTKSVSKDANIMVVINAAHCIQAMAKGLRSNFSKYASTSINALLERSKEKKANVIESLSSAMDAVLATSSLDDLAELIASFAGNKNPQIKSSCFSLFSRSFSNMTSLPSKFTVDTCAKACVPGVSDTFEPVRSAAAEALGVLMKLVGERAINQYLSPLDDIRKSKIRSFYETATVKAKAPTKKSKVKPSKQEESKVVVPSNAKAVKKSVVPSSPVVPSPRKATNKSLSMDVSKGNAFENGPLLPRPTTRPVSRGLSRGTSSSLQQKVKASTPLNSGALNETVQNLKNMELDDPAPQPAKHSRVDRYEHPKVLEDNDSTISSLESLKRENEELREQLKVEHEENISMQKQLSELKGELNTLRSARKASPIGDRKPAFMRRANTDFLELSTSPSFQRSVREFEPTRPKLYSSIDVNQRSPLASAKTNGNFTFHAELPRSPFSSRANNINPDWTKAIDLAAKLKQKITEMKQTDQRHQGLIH

Variants of: B1
Conditions: with nuf2_schpo nuf2, Q10173

Row | effect of a mutation on the interaction | Variant
1 | disrupting interaction strength | S248A;T297A;T351A;S402A

Variants of: B2
Conditions: with alp14_schpo alp14, O94534

Row | effect of a mutation on the interaction | Variant
2 | disrupting interaction strength | L461A
